The target in assay [1] is T1, MBP-mouse ADAM28m 527-622 (mouse, UniProt Q9JLN6 527-622).
T1 sequence: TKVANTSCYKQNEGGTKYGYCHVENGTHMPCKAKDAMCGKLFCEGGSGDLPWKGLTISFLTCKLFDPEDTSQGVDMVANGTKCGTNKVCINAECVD
Briefly: SPR, BIAcore 3000, fusion protein amine-coupled on CM5 chip, antibody injected. On the procedure:
(§1) A fusion protein in which a 524-659 region of human membrane-anchored form ADAM28 (SEQ ID NO: 2) is added to C-terminal of MBP (MBP-human ADAM28m 524-659) and a fusion protein in which a 527-622 region of mouse membrane-anchored form ADAM28 (SEQ ID NO: 26) is added to C-terminal of MBP (MBP-mouse ADAM28m 527-622) were each immobilized on CM5 sensor chip (GE Healthcare Life Sciences, Buckinghamshire, UK) by amine-coupling and 2B6D10 antibody was injected to a flow cell by using BIAcore 3000 (GE Healthcare Life Sciences). The KD value was calculated from the measured Ka and Kd values.
(In general: In SPR one partner is held on a chip, and binding of the other changes the refractive index at the surface.)

The target of assay [2] is T2, MBP-human ADAM28m 524-659 (human, UniProt Q9UKQ2 524-659).
T2 construct: also called the immunogen
T2 sequence: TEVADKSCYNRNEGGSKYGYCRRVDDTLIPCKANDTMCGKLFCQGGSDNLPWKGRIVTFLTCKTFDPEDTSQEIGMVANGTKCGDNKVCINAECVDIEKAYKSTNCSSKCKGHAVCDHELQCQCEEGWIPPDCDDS
Described as above. On the procedure:
as §1

In assay [3] the target is fusion protein of MBP with region 524-562 of human membrane-anchored form ADAM28 (SEQ ID NO: 2) at its … (human). Description: Western blotting. On the procedure: The reactivity of anti-human membrane-anchored form ADAM28 antibody 2B6D10 with the above-mentioned fusion proteins was evaluated by Western blotting.
A general note: A western blot detects proteins with antibodies after separation by electrophoresis.

Assay [4] deals with T3, mouse membrane-anchored form ADAM28 (mouse, UniProt Q9JLN6 196-774).
T3 construct: Expressed on transfected CHO-K1 cells; also called mouse ADAM28m; mouse ADAM28
T3 chain: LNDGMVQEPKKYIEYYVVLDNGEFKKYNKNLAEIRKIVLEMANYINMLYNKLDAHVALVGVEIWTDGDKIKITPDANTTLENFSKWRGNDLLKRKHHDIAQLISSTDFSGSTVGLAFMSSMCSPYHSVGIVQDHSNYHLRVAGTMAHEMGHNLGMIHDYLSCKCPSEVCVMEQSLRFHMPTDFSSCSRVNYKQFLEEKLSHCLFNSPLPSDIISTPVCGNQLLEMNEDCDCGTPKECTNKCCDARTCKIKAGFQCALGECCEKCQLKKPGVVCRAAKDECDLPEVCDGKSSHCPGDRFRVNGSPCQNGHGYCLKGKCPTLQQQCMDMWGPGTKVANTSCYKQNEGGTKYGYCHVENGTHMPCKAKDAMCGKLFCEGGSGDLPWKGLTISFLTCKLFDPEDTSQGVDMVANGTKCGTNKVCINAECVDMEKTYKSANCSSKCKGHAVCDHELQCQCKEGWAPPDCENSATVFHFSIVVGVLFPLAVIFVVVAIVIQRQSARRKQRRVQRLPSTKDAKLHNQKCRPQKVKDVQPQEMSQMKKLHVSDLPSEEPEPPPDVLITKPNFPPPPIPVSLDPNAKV
Briefly: immunofluorescence staining of transfected CHO-K1 cells, 5 µg/ml antibody. On the procedure:
CHO-K1 cells co-transfected with mouse membrane-anchored form ADAM28 and EGFP were treated with 2B6D10 antibody (5 μg/ml) at 4° C. for 1.5 hr. The cells were washed and treated with anti-mouse IgG-Alexa555 (1:300) at 4° C. for 1 hr. The cells were washed, fixed and observed. The results are shown in, FIG. 3.

B1: anti-human membrane-anchored form ADAM28 antibody 2B6D10 (antibody, V domains shown)
VH: QVQLQQSGAELARPGASVKLSCKASGYTFTSYGISWVKQRTGQGLEWIGEIYPRSGNTYYNEKFKGKATLTADKSSSTAYMELRRLTSEDSAVFFCARENVYSSNYGFAFWGQGTLVTVSA
VL: DVLMTQTPLSLPVSLGDQASISCRSSQNIIHSDGNTYLEWYLQKPGQSPKFLIYKVSNRFSGVPDRFSGSGSGTDFTLKISRVEAEDLGVYYCLQGSHVPWTFGGGTKLEIKR
notes: Mouse monoclonal antibody from a hybridoma, detected with anti-mouse IgG; also called 2B6D10 antibody; clone 2B6D10
As a reminder, the Kd is the constant that tells how readily two partners part at equilibrium. As for B1, the Kd in assay [1] is 0.236 nM; in assay [2], 0.0935 nM. Besides, the binding result in assay [3] and in assay [4] was “binds” throughout.
